Assay results taken from patent publication US20250361298A1 (published 2025).

T1: LY6G6D
T1 chain: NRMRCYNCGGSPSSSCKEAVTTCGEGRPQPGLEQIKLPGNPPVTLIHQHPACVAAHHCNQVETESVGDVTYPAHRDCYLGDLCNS


How the values were obtained:
Experiment in all cases: BLI
[1] = target: cp1340
[2] = target: cp1339
[3] = target: cp1342
[4] = target: cp1352
[5] = target: cp1292
[6] = target: cp1286
[7] = target: cp1353
[8] = target: cp1338
[9] = target: cp1285
[10] = target: cp1284
[11] = target: T1, LY6G6D

Binder | Kd [1] | Kd [2] | Kd [3] | Kd [4] | Kd [5] | Kd [6] | Kd [7] | Kd [8] | Kd [9] | Kd [10] | Kd [11]
cp203 (Fc fusion, biotinylated for BLI capture (site not stated)) NRMRCYNCGGSPSSSCKEAVTTCGEGRPQPGLEQIKLPGNPPVTLIHQHPACVAAHHCNQVETESVGDVTYPAHRDCYLGDLCNS | 2.52 nM | 0.824 nM | 1.73 nM | 1.54 nM | 6.97 nM | 1.12 nM | 21.8 nM | 0.695 nM | 1.78 nM | 40.7 nM | –
CB21-499-177 (antibody, V domains shown) VH: EVQLVESGGGVVQPGRSLRLSCAASGFTFSSYGMHWVRQAPGKGLEWVAVIWYDASNKEYAPSVKGRFTISRDNSKNTLYLQMNSLRAEDTAIYYCARPGEGDYWGQGTLVTVSS VL: DIQMTQSPSSLSASVGDRVTITCRASQGVRNDFGWFQQKPGKAPKRLIYGASSLQSGVPSRFSGSGSGTEFTLTISSLQPEDFATYYCLQQNSYPWTFGQGTKLEIK | – | – | – | – | – | – | – | – | – | – | 0.255 nM
CB21-499 (antibody, V domains shown) VH: EVQLVESGGGVVQPGRSLRLSCAASGFTFSSYGMHWVRQAPGKGLEWVAVIWYDGSNKDYADSVKGRFTISRDNSKNTLYLQMNSLRAEDTAIYYCARPGEGDYWGQGTLVTVSS VL: DIQMTQSPSSLSASVGDRVTITCRASQGVRNDFGWFQQKPGKAPKRLIYGASSLQSGVPSRFSGSGSGTEFTLTISSLQPEDFATYYCLQQNSYPWTFGQGTKLEIK | – | – | – | – | – | – | – | – | – | – | 0.337 nM
